Source: paper PMC3430366

How the values were obtained:
[1] = target: TDPX1 Cys83Ala (Leishmania major (Friedlin strain)); test: SDS-PAGE after reduction or oxidation
[2] = target: TDPX1 Cys35Ala (Leishmania major (Friedlin strain)); test: SDS-PAGE after reduction or oxidation

Row | Substance | stoichiometry N [1] | stoichiometry N [2]
1 | TDPX1 Cys83Ala (enzyme) | 2 | –
2 | TDPX1 Cys35Ala (enzyme) | – | 2
